Laboratory results as given in the RNAGym collection of RNA variant scans (doi:10.1073/pnas.2313332121).
This sample holds only a part of the variants without activity.

B1: TPR 5TU (parent)
chain: GGAUCUUCUCGAUCUAACAAAAAAGACAAAUCUGCCACAAAGCUUGAGAGCAUCUUCGGAUGCAGAGGCGGCAGCCUUCGGUGGCGCGAUAGCGCCAACGUUCUCAACUAUGACACGCAAAACGCGUGCUCCGUUGAAUGGAGUUUAUCAUG

Variants of: B1
Assay: polymerase ribozyme fitness, log enrichment relative to wild type (log ratio); higher = more active; in vitro selection for triplet polymerase activity
Method in brief: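 Fitness compares each genotype's enrichment to that of the wild type on a logarithmic scale, averaging replicates with inverse-variance weights. The logarithm is base 2. Enrichment came from Illumina sequencing of input and output libraries after one triplicate round of in vitro selection, which included frozen incubation at −7 °C, of PCR-built, transcribed mutant libraries of each subunit of a heterodimeric triplet polymerase ribozyme. Only genotypes with ≥10 input reads and ≥1 read per output were kept.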

Compared with C8U U15C A17U A40G G42C U61G C75U C93U C129U G133U, C8U C95U C116G U135A is higher in “polymerase ribozyme fitness (log ratio)” value: at most -4.2 for the first, -3.94 for the second.

Compared with C10A A66U G81A G94U U134A, G11A U13C C36U A49U A60U is higher in “polymerase ribozyme fitness (log ratio)” value: at most -4.2 for the first, -4.19 for the second.

C8U A17U G42C C116U C125U U146G and C8U A19G A39U C54U U61A G71A U77A G80C G88U G112C A113G C125G A150U cannot be ordered by “polymerase ribozyme fitness (log ratio)” value: at most -4.2 for the first, at most -4.2 for the second.

Going from C8U C57U to C8U C57A, the “polymerase ribozyme fitness (log ratio)” value rises from -3.18 to -2.69.

C8U A20C A49G U53A C95A A106G C118G and C8G U82G G84U C85U A107C cannot be ordered by “polymerase ribozyme fitness (log ratio)” value: at most -4.2 for the first, at most -4.2 for the second.

G11A A21U C87A and C10A C93U G140C cannot be ordered by “polymerase ribozyme fitness (log ratio)” value: at most -4.2 for the first, at most -4.2 for the second.

First: U9G C96U A97G C103G A115U U127A
Second: C10G C85U
The “polymerase ribozyme fitness (log ratio)” value of the first is lower: at most -4.2 for the first, -3 for the second.

U9C A12C A20G U53A A73U G92U C114A A121U G140A U151A and U9A A21G A41C G48U A49C U111G C131A cannot be ordered by “polymerase ribozyme fitness (log ratio)” value: at most -4.2 for the first, at most -4.2 for the second.

Going from C10U A20U C57A U145C to G11A A49G A60U, the “polymerase ribozyme fitness (log ratio)” value rises from -3.45 to -2.63.

Compared with G11A C85U G92C G143A, C10A A12G A60G C93A is lower in “polymerase ribozyme fitness (log ratio)” value: -4.01 for the first, at most -4.2 for the second.

U9A C76A C85U G100C U104G A115U and C10G G68C G83U A107C cannot be ordered by “polymerase ribozyme fitness (log ratio)” value: at most -4.2 for the first, at most -4.2 for the second.

C10U U78A G86A A107G G124A G140A G141C and C10G A12G C27G A49G G62C G67A G68U C93U cannot be ordered by “polymerase ribozyme fitness (log ratio)” value: at most -4.2 for the first, at most -4.2 for the second.

C10A U13G G25C G34U U61A C63U G68C U77C C79A G86A and C10A A12U A47U C93G A137G cannot be ordered by “polymerase ribozyme fitness (log ratio)” value: at most -4.2 for the first, at most -4.2 for the second.

U9G A20U U31C C38G G86A U127G and C10U A39G U102C cannot be ordered by “polymerase ribozyme fitness (log ratio)” value: at most -4.2 for the first, at most -4.2 for the second.

C8U C18A A20C A23C G62C A89G G136U and C8U A17G A21U C57U G80A C96G cannot be ordered by “polymerase ribozyme fitness (log ratio)” value: at most -4.2 for the first, at most -4.2 for the second.

C10U C93U and C10G U144C are within 0.2 log units of each other in “polymerase ribozyme fitness (log ratio)” value: -4.06 for the first, -3.87 for the second.

Going from U9C C85U to G11A G84A C85U G88A C99A C131G U139C, the “polymerase ribozyme fitness (log ratio)” value falls from -3.24 to at most -4.2.

Going from C10G G84A to U9C A37U G92A U102G C108U, the “polymerase ribozyme fitness (log ratio)” value falls from -3.26 to at most -4.2.

Compared with C8U A52U U56A U61A C75U C93U C99G C132G, U9C C43G G65A G67C C95A is higher in “polymerase ribozyme fitness (log ratio)” value: at most -4.2 for the first, -4.09 for the second.

C10U A40G G50U C79G C99U C108G G117A and C10A A37U G48A A64G G128U A142C cannot be ordered by “polymerase ribozyme fitness (log ratio)” value: at most -4.2 for the first, at most -4.2 for the second.

U9A A28G A41C A64U G80U C87A C95U C131G and U9C U31A U55A G59C U82G C108A C129G U144C cannot be ordered by “polymerase ribozyme fitness (log ratio)” value: at most -4.2 for the first, at most -4.2 for the second.

C10G A89G C103U U134G G141A U151A and C10G A30G C38A G94U C125G U144C cannot be ordered by “polymerase ribozyme fitness (log ratio)” value: at most -4.2 for the first, at most -4.2 for the second.

G11A A12C A23C G46A A73U G80C A97U U109A U145A and G11A C14U U61A G80C C85G C96U A98G C108A cannot be ordered by “polymerase ribozyme fitness (log ratio)” value: at most -4.2 for the first, at most -4.2 for the second.

U9A C75G C85G C95G and C8U C18G G50C G58U A73G C76A C93A C116A A120C cannot be ordered by “polymerase ribozyme fitness (log ratio)” value: at most -4.2 for the first, at most -4.2 for the second.

U9G U15C A19U C35G A113U C132U and C10U A29G A47C U55G A60U C95U U144A U146G cannot be ordered by “polymerase ribozyme fitness (log ratio)” value: at most -4.2 for the first, at most -4.2 for the second.

C10A A29C U44G G58A A60G A97U G141C and C10A C54U G67C C85A A107U cannot be ordered by “polymerase ribozyme fitness (log ratio)” value: at most -4.2 for the first, at most -4.2 for the second.

Compared with U9C U13A U15A C76U G86U, U9G A29U U45G C75A G88U C96A G141A is lower in “polymerase ribozyme fitness (log ratio)” value: -4.11 for the first, at most -4.2 for the second.

C10G C14U G50C C54A C76G C105G and C10G C54U U55A C79G C93U A98G C116G A122U cannot be ordered by “polymerase ribozyme fitness (log ratio)” value: at most -4.2 for the first, at most -4.2 for the second.

First: G11A G86A
Second: U9A C149G
The “polymerase ribozyme fitness (log ratio)” value of the first is higher: -2.24 for the first, at most -4.2 for the second.

G11A A26U G48A U109C A147G and G11A A49C cannot be ordered by “polymerase ribozyme fitness (log ratio)” value: at most -4.2 for the first, at most -4.2 for the second.

First: C8U C99A
Second: C10G A20C A40U A64G G70U C87U
The “polymerase ribozyme fitness (log ratio)” value of the first is higher: -3.69 for the first, at most -4.2 for the second.

C10G A52C G70U C85G G117U and C8U A39G G86U U102C U111G U144C G152A cannot be ordered by “polymerase ribozyme fitness (log ratio)” value: at most -4.2 for the first, at most -4.2 for the second.

G11A G46U G92A C118U and U9G C27G U55A C57A G59A cannot be ordered by “polymerase ribozyme fitness (log ratio)” value: at most -4.2 for the first, at most -4.2 for the second.

C10U G42C U53A A66G A91G A110C and U9G A21U C35U U55A C108U C118U G128A G133A cannot be ordered by “polymerase ribozyme fitness (log ratio)” value: at most -4.2 for the first, at most -4.2 for the second.

C10G A26C C76A G83A and C8U C35U A41C G58C G68U G86U C114A G140A cannot be ordered by “polymerase ribozyme fitness (log ratio)” value: at most -4.2 for the first, at most -4.2 for the second.

U9G G58A C75U G83U C95A C131A and C8U A16U A21C G67U C87U cannot be ordered by “polymerase ribozyme fitness (log ratio)” value: at most -4.2 for the first, at most -4.2 for the second.

Going from C8U A24U U55G C69U G74U C87A A138U to C10A A22U A37C U134C A142G, the “polymerase ribozyme fitness (log ratio)” value rises from at most -4.2 to -4.

C10A C54G A73U A120U and U9G U61A C75U C85U G124C cannot be ordered by “polymerase ribozyme fitness (log ratio)” value: at most -4.2 for the first, at most -4.2 for the second.

C10U A60G A64U C85U C129A and C10U A23U U33G C96G A115C cannot be ordered by “polymerase ribozyme fitness (log ratio)” value: at most -4.2 for the first, at most -4.2 for the second.

C10A C14U A30U C51A C57G G84A and U9G A29G C85U A121U G128U cannot be ordered by “polymerase ribozyme fitness (log ratio)” value: at most -4.2 for the first, at most -4.2 for the second.

First: U9G A21U A24G C72U A147C
Second: G11A A39U
The “polymerase ribozyme fitness (log ratio)” value of the first is lower: at most -4.2 for the first, -3.28 for the second.

First: G11A U61A C85A A122C A150C
Second: G11A A21U G83U G117U
The “polymerase ribozyme fitness (log ratio)” value of the first is lower: at most -4.2 for the first, -2.13 for the second.
